Results reported in the Human Domainome abundance scans (Beltran et al. 2025).
± gives the uncertainty stated by the source.

B1: Cytoplasmic polyadenylation element-binding protein 2, residues 513 to 575; numbered along this chain, Q7Z5Q1 (parent)
chain: KRVEVKPYVLDDQMCDECQGARCGGKFAPFFCANVTCLQYYCEFCWANIHSRAGREFHKPLVK

Variants of: B1
Experiment: abundance fitness (aPCA) (normalised: wild type 0, dead -1); higher = more abundant; growth selection in yeast, the domain comes from the species named
Conditions: Homo sapiens

Variant	abundance fitness
IRVEVKPYVLDDQMCDECQGARCGGKFAPFFCANVTCLQYYCEFCWANIHSRAGREFHKPLVK [K1I]	-0.215 ± 0.21
WRVEVKPYVLDDQMCDECQGARCGGKFAPFFCANVTCLQYYCEFCWANIHSRAGREFHKPLVK [K1W]	-0.985 ± 0.17
YRVEVKPYVLDDQMCDECQGARCGGKFAPFFCANVTCLQYYCEFCWANIHSRAGREFHKPLVK [K1Y]	-0.236 ± 0.088
KRVEVKPYVLDDQMCDECQGARCGGKFAPFFCANVTCLQYYCEFCWANIHSRMGREFHKPLVK [A53M]	-0.045 ± 0.057
KRVEVKPYVLDDQMCDECQGARCGQKFAPFFCANVTCLQYYCEFCWANIHSRAGREFHKPLVK [G25Q]	-0.066 ± 0.082
KRVEVKPYVLDDQMCDECQGARCGGKFAPFFCANVTCLQYYCEFCEANIHSRAGREFHKPLVK [W46E]	-0.658 ± 0.17
KRVEVKPYVLDDQMCDECQGARCGGKFAPFFCANVTCLQYYCEFCWANIHSRAGREFHKPFVK [L61F]	-0.11 ± 0.079
KRVEVKPCVLDDQMCDECQGARCGGKFAPFFCANVTCLQYYCEFCWANIHSRAGREFHKPLVK [Y8C]	-0.115 ± 0.08
KRVEVKPYVLDDQMCDECQGARCGGKFAPFFCANKTCLQYYCEFCWANIHSRAGREFHKPLVK [V35K]	0.002 ± 0.07
KRVEVKPYVLDDQMCDECQGARCGGKFAPFFCANGTCLQYYCEFCWANIHSRAGREFHKPLVK [V35G]	0.058 ± 0.041
KRVEVKPYVLDDQMCDECQGARCGGKFAPQFCANVTCLQYYCEFCWANIHSRAGREFHKPLVK [F30Q]	0.016 ± 0.063
KRVEVKPYVLDDQMCDECQGARCGGKFAPKFCANVTCLQYYCEFCWANIHSRAGREFHKPLVK [F30K]	0.037 ± 0.056
KRVEVKPYVLDDQMCGECQGARCGGKFAPFFCANVTCLQYYCEFCWANIHSRAGREFHKPLVK [D16G]	0.137 ± 0.049
KRVEVKPYVLDDQMCWECQGARCGGKFAPFFCANVTCLQYYCEFCWANIHSRAGREFHKPLVK [D16W]	-0.013 ± 0.047
KRVEVKPYVLDDQMCVECQGARCGGKFAPFFCANVTCLQYYCEFCWANIHSRAGREFHKPLVK [D16V]	-0.036 ± 0.038
KRVEVKPYVLDDQMCCECQGARCGGKFAPFFCANVTCLQYYCEFCWANIHSRAGREFHKPLVK [D16C]	0.053 ± 0.067
KRVEVKPYVLDDQMCAECQGARCGGKFAPFFCANVTCLQYYCEFCWANIHSRAGREFHKPLVK [D16A]	0.098 ± 0.056
KRVEVKPYVLDDQMCDECQGARCGGKFAPFFCANVTCLQYYCEFCWANIHSRAGREFWKPLVK [H58W]	-1.01 ± 0.08
KRVEVKPYVLDDQMCDECQGARCGGKFAPFFCANVTCLQYYCEFCWANIHSRAGREFQKPLVK [H58Q]	-0.663 ± 0.1
KRVEVKPYVLDDQMCDECQGARCGGKFAPFFCANVTCLQKYCEFCWANIHSRAGREFHKPLVK [Y40K]	-0.186 ± 0.063
KRVEVKPYVLDDQMCDECQGARCGGKFAPFFCANVTCLQNYCEFCWANIHSRAGREFHKPLVK [Y40N]	0.041 ± 0.084

Variant	abundance fitness
KRVEVKPYVLDDQMCDECQGARCGGKFAPFFCANVTCLQRYCEFCWANIHSRAGREFHKPLVK [Y40R]	-0.132 ± 0.048
KRVESKPYVLDDQMCDECQGARCGGKFAPFFCANVTCLQYYCEFCWANIHSRAGREFHKPLVK [V5S]	0.105 ± 0.038
KRVEIKPYVLDDQMCDECQGARCGGKFAPFFCANVTCLQYYCEFCWANIHSRAGREFHKPLVK [V5I]	-0.113 ± 0.057
KRVEVKPYVLDDQMCDECQGARCGGKFAPFFCANVTCLQYYCEFCWANIHGRAGREFHKPLVK [S51G]	0.051 ± 0.037
KRVEVKPYVLDDQMCDECQGARCGGDFAPFFCANVTCLQYYCEFCWANIHSRAGREFHKPLVK [K26D]	-0.148 ± 0.088
KRVEVKPYVLDDQMCDECQGARCGGAFAPFFCANVTCLQYYCEFCWANIHSRAGREFHKPLVK [K26A]	-0.016 ± 0.045
KRVEVKPYVLDDQMCDECQGARCGGCFAPFFCANVTCLQYYCEFCWANIHSRAGREFHKPLVK [K26C]	-0.261 ± 0.054
KRVEVKPYVLDDQMCDECQGARCGGKWAPFFCANVTCLQYYCEFCWANIHSRAGREFHKPLVK [F27W]	-0.178 ± 0.052
KRVEVKPYVLDDQMCDECQGARCGGKTAPFFCANVTCLQYYCEFCWANIHSRAGREFHKPLVK [F27T]	-0.053 ± 0.053
KRVEVKPYVLDDQMCDECQGARCGGKMAPFFCANVTCLQYYCEFCWANIHSRAGREFHKPLVK [F27M]	-0.013 ± 0.056
KRVEVKPYVLDDQMCDECQGARCGGKFAPFFCANVTCLQYYCEFCWANIHSRAGRWFHKPLVK [E56W]	-0.573 ± 0.057
KRVEVKPYVLDDQMCDECGGARCGGKFAPFFCANVTCLQYYCEFCWANIHSRAGREFHKPLVK [Q19G]	-0.036 ± 0.049
KRVEVKPYVLDDQMCDECQGARCGGKFAPFFCANVTCLQYYCEFCWANIHSRAGREFHPPLVK [K59P]	-0.247 ± 0.06
KRVEVKPYVLDDQMCDECQGARCGGKFAPFFCANVTCLVYYCEFCWANIHSRAGREFHKPLVK [Q39V]	-0.001 ± 0.044
KRVEVKPYVLDDQMCDECQGARCGGKFAPFFCANVTCLHYYCEFCWANIHSRAGREFHKPLVK [Q39H]	0.089 ± 0.083
KRVEVKPYVLDDQMCDECQGARCGGKFAPFFCANVTCLKYYCEFCWANIHSRAGREFHKPLVK [Q39K]	0.201 ± 0.061
KRVEVKPYVLDDQMCDECQGARCGGKFAPFFCANVTCLQYYCEFCWQNIHSRAGREFHKPLVK [A47Q]	-0.01 ± 0.085
KRVEVKPYVLDDQMCDECQGARCGGKFAPFFCALVTCLQYYCEFCWANIHSRAGREFHKPLVK [N34L]	-1.24 ± 0.093
KRVEVKPYVLDDQMCDEKQGARCGGKFAPFFCANVTCLQYYCEFCWANIHSRAGREFHKPLVK [C18K]	-0.677 ± 0.077
KRVEVKPYVLDDQMCDETQGARCGGKFAPFFCANVTCLQYYCEFCWANIHSRAGREFHKPLVK [C18T]	-0.643 ± 0.093
KRVEVKPYVLDDYMCDECQGARCGGKFAPFFCANVTCLQYYCEFCWANIHSRAGREFHKPLVK [Q13Y]	-0.217 ± 0.087
